Values of other authors in paper PMC2757418.

Target: netrin-1 (UniProt O95631)

- Kd: 10 nM
Substance: DCC (from UniProt P43146)
